“And” between values parts separate entries of the source, which are not always exact repeats. Equal values may be shown once.
Legend:
Details in all cases: remark: other sources report otherwise
[1] = molecular target: T1, Human kallikrein (analyte in the Biacore assay) (human), P03952; test: SPR, Biacore T200, 25 C, HBS-EP+; antibody captured through Fc, human kallikrein as analyte; full length antibody
[2] = molecular target: T1, Human kallikrein (analyte in the …); test: SPR, Biacore T200, 25 C, HBS-EP+; antibody captured on the chip through Fc, human kallikrein (activated, purified from human plasma) as analyte
[3] = molecular target: T1, Human kallikrein (analyte in the …); test: as above; remark: listed apart in the source

T1 sequence (P03952 20-638 limits assumed): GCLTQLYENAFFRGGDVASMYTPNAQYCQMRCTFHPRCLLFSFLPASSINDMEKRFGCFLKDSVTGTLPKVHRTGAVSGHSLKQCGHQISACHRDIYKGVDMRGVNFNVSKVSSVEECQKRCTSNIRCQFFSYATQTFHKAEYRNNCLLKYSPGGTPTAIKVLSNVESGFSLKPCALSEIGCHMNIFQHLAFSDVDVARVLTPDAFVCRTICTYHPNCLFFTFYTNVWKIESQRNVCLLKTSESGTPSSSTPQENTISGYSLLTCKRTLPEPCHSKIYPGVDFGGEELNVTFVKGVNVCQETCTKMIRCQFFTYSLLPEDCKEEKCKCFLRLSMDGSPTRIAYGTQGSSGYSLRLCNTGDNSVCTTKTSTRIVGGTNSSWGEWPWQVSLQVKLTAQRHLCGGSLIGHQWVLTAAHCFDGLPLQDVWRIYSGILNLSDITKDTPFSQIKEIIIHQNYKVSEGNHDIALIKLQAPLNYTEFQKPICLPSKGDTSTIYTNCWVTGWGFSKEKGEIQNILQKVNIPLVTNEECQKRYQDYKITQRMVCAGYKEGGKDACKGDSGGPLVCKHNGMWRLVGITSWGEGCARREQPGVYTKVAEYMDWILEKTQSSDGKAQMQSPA

B1: Lanadelumab (full length anti-pKal antibody) (antibody, IgG1, V domains shown)
VH: EVQLLESGGGLVQPGGSLRLSCAASGFTFSHYIMMWVRQAPGKGLEWVSGIYSSGGITVYADSVKGRFTISRDNSKNTLYLQMNSLRAEDTAVYYCAYRRIGVPRRDEFDIWGQGTMVTVSS
VL: DIQMTQSPSTLSASVGDRVTITCRASQSISSWLAWYQQKPGKAPKLLIYKASTLESGVPSRFSGSGSGTEFTLTISSLQPDDFATYYCQQYNTYWTFGQGTKVEIK
What does the source list for B1?
Kd [1]: 1.74 nM; koff [2]: 0.000347 s⁻¹; kon [2]: 199000 M⁻¹ s⁻¹; Kd [3]: 6.73 nM and 5.76 nM and 5.54 nM; koff [3]: 0.000315 s⁻¹ and 0.000297 s⁻¹ and 0.000291 s⁻¹; kon [3]: 51500 M⁻¹ s⁻¹ and 52600 M⁻¹ s⁻¹ and 46700 M⁻¹ s⁻¹

— US20250326861A1
